Measured values taken from patent publication US7608407B2, “Fluorescence polarization assay for determining histidine decarboxylase activity” (Boehringer Ingelheim Pharmaceuticals, Inc., priority 2004, dated 2009).

Substrate: N[C@@H](Cc1c[nH]cn1)C(=O)O
Assay: Km of HDC for its substrate histidine
Type: biochemical, human
Conditions: other: 54 Kd form, data not shown

B1: HDC (54 Kd form) (Homo sapiens; S148Q) (protein)
chain: MMEPEEYRERGREMVDYICQYLSTVRERRVTPDVQPGYLRAQLPESAPEDPDSWDSIFGDIERIIMPGVVHWQSPHMHAYYPALTSWPSLLGDMLADAINCLGFTWASSPACTELEMNVMDWLAKMLGLPEHFLHHHPSSQGGGVLQQTVSESTLIALLAARKNKILEMKTSEPDADESCLNARLVAYASDQAHSSVEKAGLISLVKMKFLPVDDNFSLRGEALQKAIEEDKQRGLVPVFVCATLGTTGVCAFDCLSELGPICAREGLWLHIDAAYAGTAFLCPEFRGFLKGIEYADSFTFNPSKWMMVHFDCTGFWVKDKYKLQQTFSVNPIYLRHANSGVATDFMHWQIPLSRRFRSVKLWFVIRSFGVKNLQAHVRHGTEMAKYFESLVRNDPSFEIPAKRHLGLVVFRLKGPNCLTENVLKEIAKAGRLFLIPATIQDKLIIRFTVTSQFTTRDDILRDWNLIRDAATLILSQ
Km: 275 µM
